Patent publication US20180088121A1
Where no end group is shown, it is not given here.

Target: TCRs of APC frameshift neopeptide specific T cell populations
Assay: flow cytometry, double staining with PE and APC labelled neopeptide-MHC multimers of T cells after 2 weeks of in vitro expansion; first panel from the left

number in the upper right quadrant (MHC-Multimer PE and APC double positive), no percent sign printed: 0.31
Binder: LILYYILPRKV (peptide-MHC, part only; not given: HLA-A2 heavy chain, construct, human, part only, also: bound in HLA-A2 MHC multimer, PE and APC labelled) [A2/…]
